In patent US20230312744A1, “Modulatory Substance of Tumor Immune Microenvironment, and Preventive, Diagnostic and/or Therapeutic Utilization of the Same” (The University Of Tokyo, priority 2020, published 2023):

Legend:
[1] = molecular target: T1, mouse TCTP (Mus musculus, UniProt P63028); assay: Immunoblotting of whole cell lysate of TCTP WT / TCTP KO SL4 cells using the 55F3 monoclonal antibody; format: binding; conditions: lysate of TCTP WT vs TCTP KO SL4 cells, FIG. 12(a)
T1 construct: preparing the whole cell lysate of TCTP WT SL4 cells (WT) or TCTP KO SL4 cells (KO), followed by immunoblotting; endogenous in cells; host or cells: SL4 mouse colon carcinoma cells (TCTP WT; TCTP KO as negative control)
T1 sequence (P63028 1-172): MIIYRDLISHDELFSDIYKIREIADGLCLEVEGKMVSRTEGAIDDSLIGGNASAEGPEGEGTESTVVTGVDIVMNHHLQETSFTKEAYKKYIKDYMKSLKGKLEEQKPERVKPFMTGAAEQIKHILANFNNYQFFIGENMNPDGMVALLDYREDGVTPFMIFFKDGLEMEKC
Description: In FIG. 12(b), PECs (2×10^5 cells) were stimulated with a supernatant of dead SL4 cells comprising the 55F3 antibody or control IgG. After the stimulation for 2 hours, the expressed Cxcl1 mRNA was quantified by RT-qPCR. n=3, and Sup: culture supernatant. In FIG. 12(c), TCTP WT SL4 cells or TCTP KO SL4 cells ([…]) were subcutaneously transplanted into C57BL/6 mice. After the transplantation, DHA (50 mg/kg) or DMSO was intraperitoneally administered to the mice every day (n=6). In FIG. 12(d), (left view) the expression level of TCTP in the interstitial area of normal large intestinal tissues was compared with the expression level of TCTP in the interstitial area of colorectal cancer tissues. In FIG. 12(d), (right view) a normal colon crypt was compared with a neoplastic lesion. […] Spearman r: spearman correlation coefficients. *P<0.05, **P<0.01. Regarding FIG. 12(b), repeated measures one-way ANOVA with Dunnett's multiple comparisons test. Regarding FIG. 12(c), repeated measures one-way ANOVA with Tukey's multiple comparisons test. […]
Immunoblot analysis was performed according to the previous report (Inoue et al., Nature 434, 243-249, doi: 10.1038/nature03308 (2005)). β-Actin (cat# A5441) was purchased from Sigma-Aldrich. […] Immunoblotting signals were detected by FUSION Solo S (Vilber-Lourmat), and were then analyzed by FUSION Capt Advanced software (Vilber-Lourmat). […]

[2] = tested on: Cxcl1 mRNA from PECs; assay: PECs stimulated with supernatant of dead SL4 cells containing antibody, Cxcl1 mRNA by RT-qPCR; format: cell-based, mouse; conditions: PECs stimulated 2 hours with culture supernatant of SL4 cells containing 55F3, vs control IgG, FIG. 12(b)
Description: In FIG. 12(b), PECs (2×10^5 cells) were stimulated with a supernatant of dead SL4 cells comprising the 55F3 antibody or control IgG. After the stimulation for 2 hours, the expressed Cxcl1 mRNA was quantified by RT-qPCR. n=3, and Sup: culture supernatant. In FIG. 12(c), TCTP WT SL4 cells or TCTP KO SL4 cells ([…]) were subcutaneously transplanted into C57BL/6 mice. After the transplantation, DHA (50 mg/kg) or DMSO was intraperitoneally administered to the mice every day (n=6). In FIG. 12(d), (left view) the expression level of TCTP in the interstitial area of normal large intestinal tissues was compared with the expression level of TCTP in the interstitial area of colorectal cancer tissues. In FIG. 12(d), (right view) a normal colon crypt was compared with a neoplastic lesion. […] Spearman r: spearman correlation coefficients. *P<0.05, **P<0.01. Regarding FIG. 12(b), repeated measures one-way ANOVA with Dunnett's multiple comparisons test. Regarding FIG. 12(c), repeated measures one-way ANOVA with Tukey's multiple comparisons test. Regarding FIG. 12(d), unpaired two-sided Student's t-test. NS indicates “no significant difference.” The data are shown as a mean value ±[…] (s.e.m.).
RAW264.7 cells, the mouse melanoma cell line B16F10 cells, the mouse fibrosarcoma cell line Meth-A cells, and HEK293T cells were obtained from RIKEN BioResource Center (Japan). […]

B1: 55F3: Mouse monoclonal antibody against human TCTP peptide SEQ ID NO: 25; CDRs SEQ ID NO: 1-6, VH SEQ ID NO: 19, VL SEQ ID NO: 22 (antibody, listed as Mus musculus)
VH: MRVLILLWLFTAFPGILSDVQLQESGPGLVKPSQSLSLTCTATGYSIASDYAWNWIRQFPGNKLEWMGYINYSGSTGYNPSLKSRISITRDTSKNQFFLQLNSVTTEDTATYYCARFEAGYWGQGTTLTVSSAKTTPPSVYPLAPGSAAQTNSMVTLGCLVKGYFPEPVT
VL: MDMRTPAQFLGILLLWFPGIKCDIKMTQSPSSMSASLGERVTITCKASQDINRYLSWFQQKPGKSPKTLIYRANRLVDGVPSRFSGSGSGQDYSLTISSLEYGDMGIYYCLQYNEFPLTFGAGTKLELKRADAAPTVSIFPPSSEQLTSGGASVVCFLN
- species crossing property to mouse TCTP [1]: has species crossing property to mouse TCTP
- expression of Cxcl1 mRNA from PECs [2]: suppressed
